From patent US20040050316A1 (published 2004)

Molecular target: the molecule itself
Assay: X-ray crystal structure (self-association of subunits)
Excerpt: Native data, to 2.2 Å resolution, were collected at station 9.6 of the S.R.S. Daresbury, from crystals frozen at liquid nitrogen temperatures in a cryo-protecting solution comprising of mother liquor plus 20% glycerol. The structure was solved by multiple isomorphous replacement with anomalous scattering using three heavy atom derivatives. Table 1 details data collection and heavy atom statistics; the HKL package (Otwinowski, Z & Minor, W (1997) Methods Enzymol 276, 307-326), and the CCP4 (Acta Crystallogr D 50 (1994) 760-763) software suite were used for data processing and analysis. Heavy atom positions were derived from difference Patterson and difference Fourier calculations. The SHARP program (Fortelle E. d. -L. & Bricogne, G. (1997) Methods Enzymol 276, 472-494) was used to refine the heavy atom parameters and obtain initial phases, further heavy atom sites were identified from the residual map analysis available in SHARP. […]
The initial model of AMPDA was traced using the QUANTA package (Molecular Simulations Inc) and refined using all data to 2.2 Å with X-PLOR (Briinger, A. T. (1993) X-PLOR Version 3.1 A system for X-ray crystallography and NMR, Yale University Press, New Haven, Conn.). […] The current model has a Rcryst=21.2% and a Rfree=25.4%, calculated on 5% of the data set (Branger, A. T. (1992) Nature 355, 472-475).

B1: rabbit AMP deaminase (AMPDA) catalytic domain, starting at Leu96 (enzyme)
chain: LSHIDEYISLSPTYQTVPDFQRVQITGDYASGVTVEDFEIVCKGLYRALCIREKYMLKSFQRFPKTPSKYLRSIEGTAWKANESSYPVFTPALKKGEDPFRTDNLPENLGYHLKMKDGVVYIYANEAAAGKDEPKPLLYPNMEEFLDDMNFLLALIAQGPVKTYTHRRLKFLSSKFQVHQMLNEMDELKELKNNPHRDFYNCRKVDTHIHAAACMNQKHLLRFIKKSYQVDADRVVYSTKEKNLTLKQLFDKLKLHPYDLTVDSLDVHAGRQTFQRFDKFNDKYNPVGASELRDLYLKTDNYINGEYFATIIKEVGADLVDAKYQHAEPRLSIYGRSPDEWSKLSSWFVRNRIYSSNMTWMIQVPRIYDVFRSKNFLPHFGKMLENVFMPVFEATINPQAHPELSVFLKHITGFDSVDDESKHSGHMFSSKSPKPQEWTLEKNPSYTYYAYYMYANIMVLNSLRKERGMNTFLFRPHCGEVGALTHLMTAFMTADNISHGLNLKKSPVLQYLFFLAQIPIAMSPLSNNSLFLEYAKNPFLDFLQKGLMISLSTDDPMQFHFTKEPLMEEYAIAAQVFKLSTCDMCEVARNSVLQCGISHEEKAKFLGNNYLEEGPIGNDIRKTNVAQIRMAYRYETWCYELNLIAEGLKSTE
notes: Purified from rabbit skeletal muscle; also called rabbit AMPDA; truncated enzyme
B1: binds.
